Measured values reported in patent publication US20210388087A1 (Chugai, published 2021).
Substitutions are numbered along the chain they refer to.

B1: GLS3000 N30T (antibody, name in Kabat numbering, V domains shown)
VH: QVQLVESGGGVVQPGRSLRLSCAASGFTFSNAWMHWVRQAPGKGLEWVAQIKAKSNNYATYYAESVKGRFTISRDDSKNSLYLQMNSLKTEDTAVYYCRYVHYGAYYGVDAWGQGTTVTVSS
VL: DIVMTQSPLSLPVTPGEPASISCRSSQSLVHSNRTTYLHWYQQKPGQAPRLLIYKVSNRFSGVPDRFSGSGSGTDFTLKISRVEAEDVGVYYCGQGTQVPYTFGQGTKLEIK
notes: one-arm IgG as m2
B2: GLS3000 Q27L (antibody, name in Kabat numbering, V domains shown)
VH: B1 VH
VL: B1 VL with Q27L, T35N
notes: one-arm IgG as m2
B3: GLS3000 N53Q (antibody, name in Kabat numbering, V domains shown)
VH: B1 VH
VL: B1 VL with T35N, N58Q
notes: one-arm IgG as m2
B4: GLS3000 P95D (antibody, name in Kabat numbering, V domains shown)
VH: B1 VH
VL: B1 VL with T35N, P100D
notes: one-arm IgG as m2
B5: GLS3000 N30Y (antibody, name in Kabat numbering, V domains shown)
VH: B1 VH
VL: B1 VL with T35Y
notes: one-arm IgG as m2
B6: GLS3000 N53Y (antibody, name in Kabat numbering, V domains shown)
VH: B1 VH
VL: B1 VL with T35N, N58Y
notes: one-arm IgG as m2
B7: GLS3000 N53T (antibody, name in Kabat numbering, V domains shown)
VH: B1 VH
VL: B1 VL with T35N, N58T
notes: one-arm IgG as m2
B8: GLS3000 P95E (antibody, name in Kabat numbering, V domains shown)
VH: B1 VH
VL: B1 VL with T35N, P100E
notes: one-arm IgG as m2
B9: GLS3000 N30W (antibody, name in Kabat numbering, V domains shown)
VH: B1 VH
VL: B1 VL with T35W
notes: one-arm IgG as m2
B10: GLS3000 P95S (antibody, name in Kabat numbering, V domains shown)
VH: B1 VH
VL: B1 VL with T35N, P100S
notes: one-arm IgG as m2
B11: GLS3000 N53L (antibody, name in Kabat numbering, V domains shown)
VH: B1 VH
VL: B1 VL with T35N, N58L
notes: one-arm IgG as m2
B12: GLS3000 N53E (antibody, name in Kabat numbering, V domains shown)
VH: B1 VH
VL: B1 VL with T35N, N58E
notes: one-arm IgG as m2
B13: GLS3000 N53V (antibody, name in Kabat numbering, V domains shown)
VH: B1 VH
VL: B1 VL with T35N, N58V
notes: one-arm IgG as m2
B14: GLS3000 N53W (antibody, name in Kabat numbering, V domains shown)
VH: B1 VH
VL: B1 VL with T35N, N58W
notes: one-arm IgG as m2
B15: GLS3000 N53D (antibody, name in Kabat numbering, V domains shown)
VH: B1 VH
VL: B1 VL with T35N, N58D
notes: one-arm IgG as m2
B16: GLS3000 P95L (antibody, name in Kabat numbering, V domains shown)
VH: B1 VH
VL: B1 VL with T35N, P100L
notes: one-arm IgG as m2
B17: GLS3000 N53P (antibody, name in Kabat numbering, V domains shown)
VH: B1 VH
VL: B1 VL with T35N, N58P
notes: one-arm IgG as m2
B18: GLS3000 N53F (antibody, name in Kabat numbering, V domains shown)
VH: B1 VH
VL: B1 VL with T35N, N58F
notes: one-arm IgG as m2
B19: GLS3000 P95G (antibody, name in Kabat numbering, V domains shown)
VH: B1 VH
VL: B1 VL with T35N, P100G
notes: one-arm IgG as m2
B20: GLS3000 N53H (antibody, name in Kabat numbering, V domains shown)
VH: B1 VH
VL: B1 VL with T35N, N58H
notes: one-arm IgG as m2
B21: GLS3000 N53S (antibody, name in Kabat numbering, V domains shown)
VH: B1 VH
VL: B1 VL with T35N, N58S
notes: one-arm IgG as m2
B22: GLS3000 N53M (antibody, name in Kabat numbering, V domains shown)
VH: B1 VH
VL: B1 VL with T35N, N58M
notes: one-arm IgG as m2
B23: GLS3000 Q27E (antibody, name in Kabat numbering, V domains shown)
VH: B1 VH
VL: B1 VL with Q27E, T35N
notes: one-arm IgG as m2
B24: GLS3000 Q27P (antibody, name in Kabat numbering, V domains shown)
VH: B1 VH
VL: B1 VL with Q27P, T35N
notes: one-arm IgG as m2
B25: GLS3000 P95A (antibody, name in Kabat numbering, V domains shown)
VH: B1 VH
VL: B1 VL with T35N, P100A
notes: one-arm IgG as m2
B26: GLS3000 Q27D (antibody, name in Kabat numbering, V domains shown)
VH: B1 VH
VL: B1 VL with Q27D, T35N
notes: one-arm IgG as m2
B27: GLS3000 N53R (antibody, name in Kabat numbering, V domains shown)
VH: B1 VH
VL: B1 VL with T35N, N58R
notes: one-arm IgG as m2
B28: GLS3000 Q27R (antibody, name in Kabat numbering, V domains shown)
VH: B1 VH
VL: B1 VL with Q27R, T35N
notes: one-arm IgG as m2
B29: GLS3000 N53I (antibody, name in Kabat numbering, V domains shown)
VH: B1 VH
VL: B1 VL with T35N, N58I
notes: one-arm IgG as m2
B30: GLS3000 N30V (antibody, name in Kabat numbering, V domains shown)
VH: B1 VH
VL: B1 VL with T35V
notes: one-arm IgG as m2
B31: GLS3000 N53K (antibody, name in Kabat numbering, V domains shown)
VH: B1 VH
VL: B1 VL with T35N, N58K
notes: one-arm IgG as m2
B32: GLS3000 N53G (antibody, name in Kabat numbering, V domains shown)
VH: B1 VH
VL: B1 VL with T35N, N58G
notes: one-arm IgG as m2
B33: GLS3000 N53A (antibody, name in Kabat numbering, V domains shown)
VH: B1 VH
VL: B1 VL with T35N, N58A
notes: one-arm IgG as m2

biological target: T1, CD3 epsilon homodimer protein (UniProt P07766 23-126); test: SPR Biacore T200, CD3e homodimer on chip, vs unaltered GLS3000 antibody
T1 construct: also called CD3 (CD3 epsilon)
T1 sequence (P07766 23-126): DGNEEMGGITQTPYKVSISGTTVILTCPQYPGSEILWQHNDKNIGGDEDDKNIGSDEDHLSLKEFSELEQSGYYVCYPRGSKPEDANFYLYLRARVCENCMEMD

| ratio of amounts bound (Z=Y/X) | Binder |
| --- | --- |
| 0.29 | B1 |
| 0.92 | B2 |
| 0.77 | B3 |
| 0.24 | B4 |
| 1.04 | B5 |
| 0.67 | B6 |
| 0.56 | B7 |
| 0.39 | B8 |
| 0.99 | B9 |
| 0.43 | B10 |
| 0.56 | B11 |
| 0.54 | B12 |
| 0.56 | B13 |
| 0.81 | B14 |
| 0.34 | B15 |
| 0.24 | B16 |
| 0.81 | B17 |

| ratio of amounts bound (Z=Y/X) | Binder |
| --- | --- |
| 0.69 | B18 |
| 0.37 | B19 |
| 1.18 | B20 |
| 0.69 | B21 |
| 0.62 | B22 |
| 0.88 | B23 |
| 0.29 | B24 |
| 0.63 | B25 |
| 0.85 | B26 |
| 1.58 | B27 |
| 1.19 | B28 |
| 0.5 | B29 |
| 0.61 | B30 |
| 1.08 | B31 |
| 0.76 | B32 |
| 0.61 | B33 |
